The results in this text go back to US20050152899A1, “EphA2 agonistic monoclonal antibodies and methods of use thereof” (priority 2002, published 2005).

In general, inhibition refers to the share of the control response that was lost under treatment.

One assay concerns control MCF-7 cells. The experiment in a line: Colony formation in soft agar, control MCF-7 cells. The class given is cell-based. The method, then: (§1) Tumor cells were suspended in soft agar. Colony formation in soft agar was assayed as described in Zelinski et al. (2001, Cancer Res. 61: 2301-6). Antibodies or a control solution (PBS) was included in bottom and top agar solutions. […] Colony formation was scored microscopically using an Olympus CK-3 inverted phase-contrast microscope outfitted with a 40× objective. Clusters containing at least three cells were scored as a positive. The average number of colonies per high-powered field is shown. Ten separate high-power microscopic fields were averaged in each experiment, and the results shown are representative of at least three separate experiments.
(§2) Growth assays were conducted as follows. MCF-7^neo (control cells) or MCF7^EphA2 cells were seeded in 96-well plates. […] Colony formation in soft agar was performed as previously described (Zelinski et al., 2001, Cancer Res. 61: 2301-6) and scored microscopically, defining clusters of at least three cells as a positive. The data represent the average of ten separate high-power microscopic fields from each sample and representative of at least three separate experiments. Error bars represent the standard error of the mean of at least three different experiments as determined using Microsoft Excel software.
Sensitivity of MCF-7^EphA2 cells to tamoxifen was measured. […]

The subject of assay [1] is MCF-7^EphA2 cells. The assay can be described thus: Colony formation in soft agar, MCF-7^EphA2 cells. In kind it is cell-based. The method, then: as §1
(§3) A549 malignant lung cancer cells were incubated with either 10 μg/ml or 2.5 μg/ml of EA5 or EA2 monoclonal antibodies or a control (PBS). […] Benign MCF-7 breast epithelial tumor cells were converted to malignant cells by the overexpression of EphA2 (MCF-7^EphA2). Both tumor cell types were incubated with either EA5 monoclonal antibodies or a control (PBS). […] Results are reported as colonies per high-powered field (HPF).
as §2
Sensitivity of MCF-7^EphA2 cells to tamoxifen was measured.
Growth MCF-7^EphA2 cells which had decreased EphA2 expression levels was assayed in soft agar.

A further assay has as its system estrogen receptor. The assay can be described thus: Estrogen receptor activity, ERE-TK-CAT reporter. The class given is cell-based. The settings on record: control and MCF-7^EphA2 cells, tamoxifen 10^−6 M.
In assay [2] the test system is MCF-7^EphA2 cells. The assay can be described thus: Tumorigenic potential of MCF-7^EphA2 vs MCF-7^neo cells in mammary fat pad under tamoxifen. In kind it is in vivo, athymic (nu/nu) mice. The settings on record: MCF-7^EphA2 vs control MCF-7^neo; tamoxifen 1 mg oral gavage 6 days per week, supplemental estrogen.
Experimental: Six to eight week-old athymic (nu/nu) mice were purchased from Harlan Sprague Dawley (Indianapolis, Ind.). When indicated, a controlled release estradiol pellet (0.72 mg 17β-estradiol, 60-day formulation) was injected subcutaneously via a sterile 14-gauge trocar 24 hours prior to tumor implantation and pellets were replaced every 60 days for those experiments spanning >60 days in duration. 1×10^6 MCF-7^neo or MCF7^EphA2 cells were injected into the mammary fat pad under direct visualization. When indicated, tamoxifen (1 mg) was administered by oral gavage 6 days per week.
For assay [3], the target named is T1, EphA2-Ephrin A1-Fc complex (Homo sapiens, UniProt P29317).
T1 construct: consisting of the extracellular domain of EphA2 linked to human IgG1 constant region
The assay can be described thus: Competition for labeled EA5 on EphA2-Ephrin A1-Fc complex. In kind it is binding. The settings on record: biotinylated EA5 10 μg/ml, 30 min. The method, then: (§4) A microtiter plate was coated with […] Ephrin A1-Fc overnight at 4° C. A fusion protein consisting of the extracellular domain of EphA2 linked to human IgG1 constant region (EphA2-Fc) was incubated with and bound to the immobilized Ephrin A1-Fc. Biotinylated Ephrin A1-Fc or EA5 was incubated with the EphA2-Ephrin A1-Fc complex and amount of binding was measured.
The EphA2-Ephrin A1-Fc complex was prepared as described above. Biotinylated EA5 (10 μg/ml) was then incubated with the complex for 30 min. Unlabeled competitor was incubated with EphA2-Ephrin A1-Fc-EA5 complex in the indicated amount. Unlabeled EA5 could displace the labeled EA5 at concentrations of 100 ng/ml or greater.

Assay [4] deals with T1, EphA2-Ephrin A1-Fc complex. The experiment in a line: Binding to EphA2-Ephrin A1-Fc complex on microtiter plate. The settings on record: EphA2-Fc bound to immobilized Ephrin A1-Fc. The method, then:
as §4

The target of assay [5] is T2, EphA2 (Homo sapiens, UniProt P29317). The experiment in a line: EphA2 tyrosine phosphorylation and degradation in MDA-MB-231 cells (immunoprecipitation / western blot). In kind it is cell-based. Also on record: endogenous in cells; host or cells: MDA-MB-231; MCF-10A. The settings on record: MDA-MB-231 monolayers. The method, then:
EphA2 antibodies promoted tyrosine phosphorylation and degradation of EphA2 in MDA-MB-231 (FIGS. 1A-1C) cells. Monolayers of cells were incubated in the presence of EA5 (FIGS. 1A-1B, lanes 2, 3) or EA2 (FIGS. 1A-1B, lanes 4, 5) or control (FIGS. 1A-1B, lane 1) for 8 minutes at 37° C. Cell lysates were then immunoprecipitated with an EphA2-specific antibody (D7, purchased from Upstate Biologicals, Inc., Lake Placid, N.Y. and deposited with the American Type Tissue Collection on Dec. 8, 2000, and assigned ATCC number PTA 2755), resolved by SDS-PAGE and subjected to western blot analysis with a phosphotyrosine-specific antibody (4G10, purchased from Upstate Biologicals, Inc., Lake Placid, N.Y.) (FIG. 1A). The membranes were stripped and re-probed with the EphA2-specific antibody used in the immunoprecipitation (D7) as a loading control.
Western blot analyses and immunoprecipitations were performed as described previously (Zantek et al., 1999, Cell Growth Diff. 10: 629-38). Briefly, detergent extracts of cell monolayers were extracted in Tris-buffered saline containing 1% Triton X-100 (Sigma, St. Louis, Mo.). […] Antibody binding was detected by enhanced chemiluminescence (Pierce, Rockford, Ill.) and autoradiography (Kodak X-OMAT; Rochester, N.Y.). […]
(In general: In western blotting, separated proteins are transferred to a membrane and probed.)

Assay [6] concerns A549 malignant lung cancer cells. The experiment in a line: Colony formation in soft agar, A549 cells. The class given is cell-based. The settings on record: 10 μg/ml or 2.5 μg/ml, 7 days at 37° C., vs PBS. The method, then: Tumor cells were suspended in soft agar. Colony formation in soft agar was assayed as described in Zelinski et al. (2001, Cancer Res. 61: 2301-6). Antibodies or a control solution (PBS) was included in bottom and top agar solutions. Cells were suspended in soft agar for 7 days at 37° C. in the presence of purified antibody or control solution (PBS), administered at the time of suspension. Colony formation was scored microscopically using an Olympus CK-3 inverted phase-contrast microscope outfitted with a 40× objective. Clusters containing at least three cells were scored as a positive. The average number of colonies per high-powered field is shown. Ten separate high-power microscopic fields were averaged in each experiment, and the results shown are representative of at least three separate experiments.
as §3

Assay [7] concerns the target T2, EphA2. The assay can be described thus: Immunofluorescent staining of MDA-MB-231 and MCF-10A cells. The class given is binding. Also noted: endogenous in cells; host or cells: MDA-MB-231; MCF-10A. The text has this: The epitope of the EphA2 antibodies were characterized. EA5 and EA2 selectively bind to malignant cells. The anti-EphA2 monoclonal antibodies EA5 and EA2 bind malignant MDA-MB-231 breast epithelial tumor cells (FIGS. 11A-11B) more strongly than benign MCF-10A breast epithelial tumor cells (FIGS. 11C-11D) as shown by immunofluorescent staining. […] The anti-EphA2 monoclonal antibody EA5 identified malignant prostate cancer cells in formalin-fixed, paraffin-embedded archival clinical specimens (FIG. 12).
EA5 preferentially binds an EphA2 epitope exposed on cancer cells but not non-cancer cells. Non-transformed MCF-10A cells or transformed MDA-MB-231 cells were incubated with 10 μg/ml EA2 at 4° C. for 30 min. prior to fixation in a 3% formalin solution and immunolabeling with fluorophore-conjugated anti-mouse IgG.

For assay [8], the target named is T2, EphA2. The experiment in a line: EphA2 tyrosine phosphorylation and degradation in A549 cells (immunoprecipitation / western blot). The settings on record: A549 monolayers. The class given is cell-based. Also noted: endogenous in cells. The method, then:
Western blot analyses and immunoprecipitations were performed as described previously (Zantek et al., 1999, Cell Growth Diff. 10: 629-38). Briefly, detergent extracts of cell monolayers were extracted in Tris-buffered saline containing 1% Triton X-100 (Sigma, St. Louis, Mo.). After measuring protein concentrations (BioRad, Hercules, Calif.), 1.5 mg of cell lysate was immunoprecipitated, resolved by SDS-PAGE and transferred to nitrocellulose (Protran, Schleicher and Schuell, Keene, N.H.). Antibody binding was detected by enhanced chemiluminescence (Pierce, Rockford, Ill.) and autoradiography (Kodak X-OMAT; Rochester, N.Y.).
Similar experiments were conducted with A549 cells. Monolayers of A549 cells were incubated at 37° C. in the presence of EA5 or EA2 or control (PBS) for either 10 minutes (FIGS. 2A-2B) or 5 hours (FIGS. 2C-2D). Cell lysates were then immunoprecipitated with an EphA2-specific antibody (D7), resolved by SDS-PAGE and subjected to western blot analysis with a phosphotyrosine-specific antibody (4G10, purchased from Upstate Biologicals, Inc., Lake Placid, N.Y.) (FIGS. 2A, 2C). The membranes were stripped and re-probed with the EphA2-specific antibody used in the immunoprecipitation (D7) as a loading control (FIGS. 2B, 2D). […] (FIG. 2D).

T2 sequence (P29317 24-976): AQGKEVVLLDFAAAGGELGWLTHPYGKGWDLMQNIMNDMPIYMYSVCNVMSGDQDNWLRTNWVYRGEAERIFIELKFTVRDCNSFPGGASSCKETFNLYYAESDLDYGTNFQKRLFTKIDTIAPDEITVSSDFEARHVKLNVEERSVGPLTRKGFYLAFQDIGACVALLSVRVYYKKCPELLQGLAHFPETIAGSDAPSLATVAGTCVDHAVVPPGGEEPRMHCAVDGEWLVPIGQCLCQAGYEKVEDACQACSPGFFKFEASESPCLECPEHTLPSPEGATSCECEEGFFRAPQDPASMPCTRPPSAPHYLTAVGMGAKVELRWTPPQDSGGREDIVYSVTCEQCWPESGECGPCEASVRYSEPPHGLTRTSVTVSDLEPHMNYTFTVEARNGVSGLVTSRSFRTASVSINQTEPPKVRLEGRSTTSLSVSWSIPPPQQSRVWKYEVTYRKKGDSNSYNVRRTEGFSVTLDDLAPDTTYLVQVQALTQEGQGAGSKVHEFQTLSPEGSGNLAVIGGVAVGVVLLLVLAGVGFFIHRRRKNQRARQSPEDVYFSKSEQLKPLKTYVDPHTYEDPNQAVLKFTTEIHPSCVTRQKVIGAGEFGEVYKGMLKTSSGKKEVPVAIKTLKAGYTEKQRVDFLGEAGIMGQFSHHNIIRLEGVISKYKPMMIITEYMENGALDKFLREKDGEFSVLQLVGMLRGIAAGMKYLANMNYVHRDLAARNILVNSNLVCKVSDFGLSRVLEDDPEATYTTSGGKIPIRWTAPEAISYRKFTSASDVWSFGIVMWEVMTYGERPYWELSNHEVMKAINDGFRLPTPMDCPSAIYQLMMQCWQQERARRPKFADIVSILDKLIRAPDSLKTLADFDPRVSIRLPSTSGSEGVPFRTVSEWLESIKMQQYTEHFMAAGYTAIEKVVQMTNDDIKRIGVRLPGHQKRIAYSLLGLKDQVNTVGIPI
T1 sequence (P29317 24-537 limits assumed, one chain of several): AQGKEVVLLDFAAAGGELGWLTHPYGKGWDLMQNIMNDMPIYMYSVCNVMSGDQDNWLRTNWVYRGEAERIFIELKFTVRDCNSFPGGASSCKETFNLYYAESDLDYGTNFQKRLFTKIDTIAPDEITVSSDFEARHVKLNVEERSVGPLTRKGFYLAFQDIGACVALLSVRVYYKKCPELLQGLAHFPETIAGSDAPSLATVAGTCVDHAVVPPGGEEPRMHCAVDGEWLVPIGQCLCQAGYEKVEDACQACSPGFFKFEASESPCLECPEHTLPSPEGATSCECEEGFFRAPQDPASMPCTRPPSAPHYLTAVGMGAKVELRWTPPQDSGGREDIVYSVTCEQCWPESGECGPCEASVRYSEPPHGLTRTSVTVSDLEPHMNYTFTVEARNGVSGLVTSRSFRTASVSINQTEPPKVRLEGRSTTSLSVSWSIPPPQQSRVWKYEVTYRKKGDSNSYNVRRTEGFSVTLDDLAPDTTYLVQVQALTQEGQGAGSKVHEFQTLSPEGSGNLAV
Experimental for estrogen receptor: Estrogen receptor activity was measured using ERE-TK-CAT vector (which encodes a single ERE; a generous gift from Dr. Nakshatri, Indiana University School of Medicine) in the unstimulated state, after estradiol (10^−8 M) stimulation and tamoxifen (10^−6 M) inhibition. Cells were plated in phenol red free, charcoal stripped sera for 2 days and transfected with ERE-TK-CAT (5 μg) using calcium phosphate method. The β-galactosidase expression vector RSV/β-galactosidase (2 μg, Dr. Nakshatri's gift) was cotransfected as a control. Fresh media including the appropriate selection drugs were added 24 hours after transfection. Cells were harvested after 24 hours and CAT activity was evaluated as described (Nakshatri et al., 1997, Mol. Cell. Biol. 17: 3629-39).

Consider `CC/C(=C(\c1ccccc1)c1ccc(OCCN(C)C)cc1)c1ccccc1` [tamoxifen], for which the inhibition at 1 µM with control MCF-7 cells (Homo sapiens, MCF7, matched control MCF-7 cells, tamoxifen 1 μM (FIG. 10C), read-out: Inhibition of soft agar colonization) is 75%; in the assay with MCF-7^EphA2 cells [1] (336 h, MCF-7^EphA2 cells, 1 μM tamoxifen, 14 days (FIG. 8A), read-out: Inhibition of soft agar colonization) it was 25%. Also, the “Reduction of soft agar colonization” value with control MCF-7 cells (control MCF-7 cells, 1 μM tamoxifen, 14 days (FIG. 8A)) is “at least 60%”. For the same molecule, in the assay on MCF-7^EphA2 cells [1] (MCF-7^EphA2 cells, tamoxifen 1 μM and/or EA5 10 μg/ml (FIG. 10C)), the “Decrease in soft agar colonization” value amounted to 25%. For the same molecule, the “Estrogen receptor activity (CAT)” value with estrogen receptor is listed as “remained sensitive to tamoxifen”. In addition, the “Sensitivity of tumorigenic potential to tamoxifen” value in the assay on MCF-7^EphA2 cells [2] is recorded as “less sensitive to tamoxifen”.

On to `C[C@]12CC[C@@H]3c4ccc(O)cc4CC[C@H]3[C@@H]1CC[C@@H]2O` [estradiol, 17β-estradiol, reference compound], for which, in the assay on MCF-7^EphA2 cells [1] (1 μM tamoxifen and 1 μM 17β-estradiol, MCF-7 or MCF-7^EphA2 cells (FIG. 8A)), the “Effect of excess estradiol on tamoxifen inhibition of soft agar colonization” value is “overcame the inhibitory effects of tamoxifen”.

B1: Ephrin A1-Fc: Fc form of the EphA2 ligand Ephrin A1, used biotinylated or unlabeled (protein)
chain: DRHTVFWNSSNPKFRNEDYTIHVQLNDYVDIICPHYEDHSVADAAMEQYILYLVEHEEYQLCQPQSKDQVRWQCNRPSAKHGPEKLSEKFQRFTPFTLGKEFKEGHSYYYISKPIHQHEDRCLRLKVTVSGKITHSPQAHDNPQEKRLAADDPEVRVLHSIGHS
modifications: left off: a dimerising Fc or GST
notes: Fc form of the EphA2 ligand Ephrin A1, used biotinylated or unlabeled
B1: the “Displacement of labeled EA5 by unlabeled competitor” value in assay [3] is listed as “did not significantly displace labeled EA5”. In addition, in [4], the “Amount of biotinylated protein bound to EphA2-Ephrin A1-Fc complex” value is recorded as “Very little additional Ephrin A1-Fc bound”.

B2: EA2: EphA2 agonistic monoclonal antibody; hybridoma strain EA2.31, ATCC PTA-4380; VL SEQ ID NO:1, VH SEQ ID NO:5 (antibody, listed as Homo Sapiens, V domains shown)
VH: DVKLVESGGGLVKPGGSLKLSCAASGFTFSSYTMSWVRQTPEKRLEWVATISSGGTYTYYPDSVKGRFTISRDNAKNTLYLQMSSLKSEDTAMYYCTREAIFTYWGQGTLVTVSA
VL: DIKMTQSPSSMYASLGERVTITCKASQDINNYLSWFQQKPGKSPKTLIYRANRLVDGVPSRFSGSGSGQDYSLTISSLEYEDMGIYYCLKYDEFPYTFGGGTKLEIK
With B2, the EphA2 protein levels result with EphA2 [5] (30 μg/ml, 24 hours at 37° C.) is listed as “decrease”. In addition, the “Levels of EphA2 phosphorylation” value with EphA2 [5] (8 minutes at 37° C., phosphotyrosine western blot) is on record as “increase”. Also, in assay [6], the “Cell growth in soft agar (colonies per high-powered field)” value is “inhibited cell growth in soft agar”. In addition, in the assay with EphA2 [7], the “Binding to malignant MDA-MB-231 vs benign MCF-10A cells” value is “more strongly”. Moreover, the EphA2 phosphorylation result with EphA2 [8] (10 minutes at 37° C.) is recorded as “increase in phosphorylation”. Also, the EphA2 protein degradation entry with EphA2 [8] (5 hours at 37° C.) is “degradation of the EphA2 protein”.
